Target: RSV-F (UniProt P03420 26-529)
Experiment: SPR, similar method as for Cetuximab

RSV-F, sequence (P03420 26-529): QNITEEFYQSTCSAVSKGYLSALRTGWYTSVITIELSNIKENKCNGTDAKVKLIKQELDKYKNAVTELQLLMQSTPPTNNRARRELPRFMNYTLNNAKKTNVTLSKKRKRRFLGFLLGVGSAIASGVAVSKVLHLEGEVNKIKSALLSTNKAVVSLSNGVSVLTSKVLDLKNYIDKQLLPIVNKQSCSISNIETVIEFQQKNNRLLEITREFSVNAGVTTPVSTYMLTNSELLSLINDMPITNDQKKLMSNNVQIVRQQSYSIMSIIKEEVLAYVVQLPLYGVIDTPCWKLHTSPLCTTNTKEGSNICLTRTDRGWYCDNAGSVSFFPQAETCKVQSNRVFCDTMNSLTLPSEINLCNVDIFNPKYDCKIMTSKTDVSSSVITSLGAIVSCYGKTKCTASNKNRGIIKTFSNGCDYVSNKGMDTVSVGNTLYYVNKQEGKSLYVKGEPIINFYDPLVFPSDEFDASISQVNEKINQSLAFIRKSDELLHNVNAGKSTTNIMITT

B1: Synagis (antibody, human IgG1, kappa, V domains shown)
VH: QVTLRESGPALVKPTQTLTLTCTFSGFSLSTSGMSVGWIRQPPGKALEWLADIWWDDKKDYNPSLKSRLTISKDTSKNQVVLKVTNMDPADTATYYCARSMITNWYFDVWGAGTTVTVSS
VL: DIQMTQSPSTLSASVGDRVTITCKCQLSVGYMHWYQQKPGKAPKLLIYDTSKLASGVPSRFSGSGSGTEFTLTISSLQPDDFATYYCFQGSGYPFTFGGGTKLEIKR
B1 was tested, and the Kd was 6.6 nM.
